Biological target: Anti-CD28 Fab (SEQ ID NOs: 202, 203)
Test: phage binding ELISA on captured Fab;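 also: clonal phage supernatants added briefly to wells pre-incubated with CD28 antigen or with blocking buffer only, then washed, bound phage read by ELISA using HRP-coupled anti-M13 antibody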
Description: (§1) Clonal phage were harvested as crude supernatants and screened via standard ELISAs. […] Prior to the addition of clonal phage, wells were incubated with blocking buffer and CD28 antigen or blocking buffer alone. Without washing or aspirating, clonal phage supernatants were then added to the wells and incubated for a short time. Wells were then washed followed by detection of bound phage using a horse radish conjugated anti-M13 antibody.

Chain of Anti-CD28 Fab (SEQ ID NOs: 202, 203) (VH, as listed by the source, chain 1 of 2): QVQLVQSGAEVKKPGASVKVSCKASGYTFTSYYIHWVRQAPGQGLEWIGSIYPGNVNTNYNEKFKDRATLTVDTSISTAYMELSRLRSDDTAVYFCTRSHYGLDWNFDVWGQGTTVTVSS
Chain of Anti-CD28 Fab (SEQ ID NOs: 202, 203) (VL, as listed by the source, chain 2 of 2): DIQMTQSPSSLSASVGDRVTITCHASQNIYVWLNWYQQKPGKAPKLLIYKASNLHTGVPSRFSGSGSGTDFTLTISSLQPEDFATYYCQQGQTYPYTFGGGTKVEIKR

In order of rising “Anti-CD28 Fab signal” value:
1. YCEGHTVEYMAKCL [Phage-149]  2.2
2. YCDGHIEEYRAKCL [Phage-145]  2.21
3. YCDGHAPEYMEKCM [Phage-148]  2.21
4. YCDGHRGEYLQKCL [Phage-141]  2.22
5. YCAGHSPEHMWKCL [Phage-98]  2.3
6. YCEGHSEEYISKCL [Phage-99]  2.3
7. YCDGHTLEYMWKCL [Phage-95]  2.31

Biological target: anti-CD28 Fab (SEQ ID NOs: 202, 203)
Test: phage ELISA, Fab on plate, CD28 antigen as competitor;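 also: wells pre-incubated with CD28 antigen in blocking buffer (reference: blocking buffer only) before adding crude clonal phage supernatant, bound phage read with HRP-coupled anti-M13 antibody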
Description: After panning, phage infected bacteria were plated out and colonies picked into 96 well blocks. Clonal phage was then amplified and separated from bacterial cells via centrifugation.
Clonal phage were harvested as crude supernatants and screened via standard ELISAs. […] Prior to the addition of clonal phage, wells were incubated with blocking buffer and CD28 antigen or blocking buffer alone. Without washing or aspirating, clonal phage supernatants were then added to the wells and incubated for a short time. Wells were then washed followed by detection of bound phage using a horse radish conjugated anti-M13 antibody. Clonal phage of interest were then sent for sequence analysis.

Chain of anti-CD28 Fab (SEQ ID NOs: 202, 203) (VH, as listed by the source, chain 1 of 2): as the sequence (VH, as listed by the source, chain 1 of 2) above
Chain of anti-CD28 Fab (SEQ ID NOs: 202, 203) (VL, as listed by the source, chain 2 of 2): as the sequence (VL, as listed by the source, chain 2 of 2) above

In order of rising “Anti-CD28 Fab signal in the presence of CD28” value:
1. TCSAGATYKWPACF [Phage-1172]  0.05
2. TCAAGATYTWPTCF [Phage-1108]  0.05
3. SCAAGAHYPWPECL [Phage-1160]  0.05
4. PCAAGAMWAWPYCL [Phage-1105]  0.05
5. LCAAGAYYPWPLCF [Phage-1173]  0.06
6. LCAAGAAWEWPMCF [Phage-1167]  0.06
7. TCAAGAMYQWPECF [Phage-1110]  0.06
8. TCSAGFSYKWPWCW [Phage-1117]  0.06
9. TCSAGATYKWPVCL [Phage-1112]  0.06
10. TCSAGATYTWPSCF [Phage-1125]  0.06
11. TCAAGATYSWPDCF [Phage-1102]  0.06
12. SCAAGAHYKWPVCI [Phage-1100]  0.06
13. SCSAGATYEWPYCF [Phage-1113]  0.06
14. SCSAGATYQWPYCF [Phage-1176]  0.06
15. RCAAGAMWTWPACF [Phage-1179]  0.06
16. TCAAGVPYKWPPCL [Phage-1169]  0.06
17. TCEDGFHFSWPECF [Phage-1123]  0.07
18. RCAAVFSYTWPPCL [Phage-1171]  0.07
19. SCSAGATYTWPACL [Phage-1158]  0.07
20. SCADGAIWEWPWCF [Phage-1164]  0.07
21. SCAEVFNYVWPFCF [Phage-1161]  0.07
22. SCSAGALWKWPVCF [Phage-1116]  0.07
23. TCAAGAHYSWPFCM [Phage-1128]  0.07
24. TCSAGATYSWPYCL [Phage-1186]  0.07
25. TCSAGAHYSWPKCF [Phage-1159]  0.07
26. TCAAGAHYTWPTCL [Phage-1111]  0.07
27. SCAAGATYTWPFCL [Phage-1170]  0.07
28. SCAAGATYVWPMCF [Phage-1127]  0.07
29. WCDQFFHYKWPLCL [Phage-1126]  0.07
30. QCAAGAMWTWPVCF [Phage-1103]  0.07
31. TCAAGVHFGWPLCF [Phage-1107]  0.07
32. ICAAGFIWSWPACF [Phage-1101]  0.08
33. TCSAGATYAWPACF [Phage-1121]  0.08
34. QCSAGATYAWPFCL [Phage-1168]  0.08
35. TCAAGAAYTWPVCF [Phage-1162]  0.08
36. LCAAGATYPWPICL [Phage-1115]  0.08
37. TCAAGASWEWPACL [Phage-1109]  0.08
38. SCSAGAMYTWPTCL [Phage-1166]  0.08
39. TCTAGFSYKWPTCL [Phage-1174]  0.09
40. SCAAGAMWEWPKCF [Phage-1163]  0.09
41. SCSAGAMYQWPLCF [Phage-1118]  0.09
42. TCSAGATYSWPSCF [Phage-1187]  0.09
43. TCAAGATYEWPSCL [Phage-1165]  0.09
44. TCSAGATYMWPACF [Phage-1120]  0.1
45. TCAAGAHYLWPHCL [Phage-1104]  0.12
46. TCAAGANWHWPWCF [Phage-1114]  0.15
47. WCGVGMDWRWPECL [Phage-1122]  0.16

Biological target: Anti-CD28 Fab (SEQ ID NOs: 202, 203)
Test: phage binding ELISA on captured Fab; competitor CD28 antigen;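 as to Anti-CD28 Fab signal in the presence of CD28: wells pretreated with CD28 antigen in blocking buffer or buffer only, then clonal phage supernatants added briefly without washing, bound phage detected via horseradish-conjugated anti-M13 antibody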
Description: as §1

In order of falling “Anti-CD28 Fab signal in the presence of CD28” value:
1. YCDGHTLEYMWKCL [Phage-95]  0.13
2. YCDGHRGEYLQKCL [Phage-141]  0.09
3. YCEGHTVEYMAKCL [Phage-149]  0.08
4. YCEGHSEEYISKCL [Phage-99]  0.08
5. YCDGHIEEYRAKCL [Phage-145]  0.07
6. YCDGHAPEYMEKCM [Phage-148]  0.07
7. YCAGHSPEHMWKCL [Phage-98]  0.06

Biological target: anti-CD28 Fab (SEQ ID NOs: 202, 203)
Test: phage ELISA, Fab on plate;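 also: ELISA of crude clonal phage supernatants on the plate, wells preloaded with CD28 antigen or only blocking buffer, captured phage read out via HRP-linked anti-M13 antibody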

In order of rising “Anti-CD28 Fab signal” value:
1. TCSAGATYSWPSCF [Phage-1187]  1.21
2. TCSAGATYSWPYCL [Phage-1186]  1.22
3. RCAAGAMWTWPACF [Phage-1179]  1.25
4. SCSAGATYQWPYCF [Phage-1176]  1.26
5. TCTAGFSYKWPTCL [Phage-1174]  1.28
6. LCAAGAYYPWPLCF [Phage-1173]  1.28
7. TCSAGATYKWPACF [Phage-1172]  1.29
8. QCSAGATYAWPFCL [Phage-1168]  1.29
9. RCAAVFSYTWPPCL [Phage-1171]  1.29
10. SCAAGATYTWPFCL [Phage-1170]  1.29
11. TCAAGVPYKWPPCL [Phage-1169]  1.29
12. LCAAGAAWEWPMCF [Phage-1167]  1.3
13. SCSAGAMYTWPTCL [Phage-1166]  1.31
14. SCAAGAMWEWPKCF [Phage-1163]  1.32
15. SCAAGAHYPWPECL [Phage-1160]  1.32
16. SCADGAIWEWPWCF [Phage-1164]  1.32
17. SCAEVFNYVWPFCF [Phage-1161]  1.32
18. TCAAGAAYTWPVCF [Phage-1162]  1.32
19. TCAAGATYEWPSCL [Phage-1165]  1.32
20. TCSAGAHYSWPKCF [Phage-1159]  1.33
21. SCSAGATYTWPACL [Phage-1158]  1.34
22. TCAAGAHYSWPFCM [Phage-1128]  1.42
23. TCSAGATYTWPSCF [Phage-1125]  1.42
24. SCAAGATYVWPMCF [Phage-1127]  1.42
25. WCDQFFHYKWPLCL [Phage-1126]  1.42
26. TCSAGATYMWPACF [Phage-1120]  1.44
27. TCSAGATYAWPACF [Phage-1121]  1.44
28. TCEDGFHFSWPECF [Phage-1123]  1.44
29. SCSAGAMYQWPLCF [Phage-1118]  1.44
30. WCGVGMDWRWPECL [Phage-1122]  1.44
31. TCSAGFSYKWPWCW [Phage-1117]  1.45
32. SCSAGALWKWPVCF [Phage-1116]  1.45
33. TCAAGANWHWPWCF [Phage-1114]  1.46
34. LCAAGATYPWPICL [Phage-1115]  1.46
35. TCSAGATYKWPVCL [Phage-1112]  1.47
36. TCAAGAHYTWPTCL [Phage-1111]  1.47
37. SCSAGATYEWPYCF [Phage-1113]  1.47
38. TCAAGATYTWPTCF [Phage-1108]  1.48
39. TCAAGAMYQWPECF [Phage-1110]  1.48
40. TCAAGASWEWPACL [Phage-1109]  1.48
41. PCAAGAMWAWPYCL [Phage-1105]  1.49
42. TCAAGVHFGWPLCF [Phage-1107]  1.49
43. TCAAGAHYLWPHCL [Phage-1104]  1.5
44. QCAAGAMWTWPVCF [Phage-1103]  1.5
45. ICAAGFIWSWPACF [Phage-1101]  1.51
46. TCAAGATYSWPDCF [Phage-1102]  1.51
47. SCAAGAHYKWPVCI [Phage-1100]  1.51
